Laboratory results reported in PMC5973619.

Molecular target: T1, Sun2 (human (endogenous in HeLa and RPE-1)), Q9UH99
T1 chain: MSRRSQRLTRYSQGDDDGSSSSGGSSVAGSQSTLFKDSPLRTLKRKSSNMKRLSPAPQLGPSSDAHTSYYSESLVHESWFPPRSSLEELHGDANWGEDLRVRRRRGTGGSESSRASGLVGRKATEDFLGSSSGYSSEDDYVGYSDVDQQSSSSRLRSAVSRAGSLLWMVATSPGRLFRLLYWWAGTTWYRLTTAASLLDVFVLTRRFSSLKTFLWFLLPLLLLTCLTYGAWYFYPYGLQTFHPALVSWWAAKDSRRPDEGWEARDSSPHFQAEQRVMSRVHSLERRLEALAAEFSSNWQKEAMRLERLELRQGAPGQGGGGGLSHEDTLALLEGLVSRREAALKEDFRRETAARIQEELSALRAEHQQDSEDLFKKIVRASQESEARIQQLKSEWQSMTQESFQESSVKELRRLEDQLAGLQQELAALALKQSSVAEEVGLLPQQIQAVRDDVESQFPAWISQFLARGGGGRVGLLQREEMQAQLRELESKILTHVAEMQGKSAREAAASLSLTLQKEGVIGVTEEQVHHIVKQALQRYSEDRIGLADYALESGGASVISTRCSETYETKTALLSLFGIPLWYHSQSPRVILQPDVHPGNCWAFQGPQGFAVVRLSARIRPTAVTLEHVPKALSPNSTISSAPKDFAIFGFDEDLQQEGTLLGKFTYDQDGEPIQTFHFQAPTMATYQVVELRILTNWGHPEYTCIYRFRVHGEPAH
Test: cross-linking; HeLa cells in PBS containing .5% formaldehyde for 10min room temperature before lysis; reducing SDS-PAGE and blot for Sun1 and Sun2
Settings: remark: other sources report otherwise

B1: Sun2, Q9UH99 1-717 (natural protein)
chain: MSRRSQRLTRYSQGDDDGSSSSGGSSVAGSQSTLFKDSPLRTLKRKSSNMKRLSPAPQLGPSSDAHTSYYSESLVHESWFPPRSSLEELHGDANWGEDLRVRRRRGTGGSESSRASGLVGRKATEDFLGSSSGYSSEDDYVGYSDVDQQSSSSRLRSAVSRAGSLLWMVATSPGRLFRLLYWWAGTTWYRLTTAASLLDVFVLTRRFSSLKTFLWFLLPLLLLTCLTYGAWYFYPYGLQTFHPALVSWWAAKDSRRPDEGWEARDSSPHFQAEQRVMSRVHSLERRLEALAAEFSSNWQKEAMRLERLELRQGAPGQGGGGGLSHEDTLALLEGLVSRREAALKEDFRRETAARIQEELSALRAEHQQDSEDLFKKIVRASQESEARIQQLKSEWQSMTQESFQESSVKELRRLEDQLAGLQQELAALALKQSSVAEEVGLLPQQIQAVRDDVESQFPAWISQFLARGGGGRVGLLQREEMQAQLRELESKILTHVAEMQGKSAREAAASLSLTLQKEGVIGVTEEQVHHIVKQALQRYSEDRIGLADYALESGGASVISTRCSETYETKTALLSLFGIPLWYHSQSPRVILQPDVHPGNCWAFQGPQGFAVVRLSARIRPTAVTLEHVPKALSPNSTISSAPKDFAIFGFDEDLQQEGTLLGKFTYDQDGEPIQTFHFQAPTMATYQVVELRILTNWGHPEYTCIYRFRVHGEPAH
B1 was tested. Which stoichiometry N did it give?
The stoichiometry N was 3.
